First the molecules themselves.
B1: OsHPPDm-F372G: Oryza sativa HPPD mutant F372G, SEQ ID NO: 311 (protein)
chain: MPPTPTPTATTGAVSAAAAAGENAGFRLVGHRRFVRANPRSDRFQALAFHHVELWCADAASAAGRFAFALGAPLAARSDLSTGNSAHASLLLRSASVAFLFTAPYGGDHGVGADAATTASIPSFSPGAARRFAADHGLAVHAVALRVADAADAFRASVAAGARPAFQPADLGGGFGLAEVELYGDVVLRFVSHPDGADAPFLPGFEGVSNPGAVDYGLRRFDHVVGNVPELAPVAAYISGFTGFHEFAEFTAEDVGTAESGLNSVVLANNAETVLLPLNEPVHGTKRRSQIQTYLDHHGGPGVQHIALASDDVLGTLREMRARSAMGGFEFLAPPPPNYYDGVRRRAGDVLSEEQINECQELGVLVDRDDQGVLLQIGTKPVGDRPTFFLEMIQRIGCMEKDESGQEYQKGGCGGFGKGNFSELFKSIEEYEKSLEAKQAPTVQGS
modifications: OsHPPDm-F372G Amino Acid Sequence
B2: SiHPPDm-F372G: Setaria italica HPPD mutant F372G, SEQ ID NO: 307 (protein)
chain: MPPTPTPAAAAPGAAAAPAAGDQAAFRLVGHRGFVRVNPRSDRFHTLSFHHVELWCADATSAAGRFSFGLGAPLAARSDLSTGNSAHASLLLRSGSLAFLFTAPYAHGVDAATASLPSFSAPAARSFAADHGLAVRAIGLRVADAEDAFRASVAAGARPAFKPVELGLGFRLAEVELYGDVVLRYVSYPDAEDAPFLPGFENVNNPGALNYGLRRFDHIVGNVPELAPVAAYVAGFTGFHEFAEFTAEDVGTAESGLNSMVLANNSETVLIPLNEPVHGTKRRSQIQTFLDHNGGPGVQHIALASDDVLRTLREMQARSAMGGFEFMAAPPPDYYEGVRRRAGDVLSEAQIKECQELGVLVDRDDQGVLLQIGTKPVGDRQTLFLEIIQRIGCMEKDEQGQEYQKGGCGGFGKGNFSQLFKSIEDYEKSLESKQAAAVQGS
modifications: SiHPPDm-F372G Amino Acid Sequence
B3: CaHPPDm-F372G: Cicer arietinum HPPD mutant F372G, SEQ ID NO: 315 (protein)
chain: MGTIETQTGFKLVGFNNFVRTNPKSDRFKVKRFHHVEFWCPDATNTARRFSWGLGMPIVAKSDLSTGNQTHASYLLRSGDLNFLFTAAYSPSISLSAPHPTASIPSFSAPTSFAFSASHGLGVRAVAIEVDDAEFAYTTSVNHGAIPSSPPVVLDNRVKLAEVQLYGDVVLRYVSYNDPIETSNPNPNHWFLPGFEPVEETSSNQSIDFGIQRLDHAVGNVPELSSALNYVKQFTGFHEFAEFTAEDVGTSESGLNSTVLANNEETVLLPMNEPVYGTKRKSQIQTYLEHNEGAGLQHLALMSNDIFKTLREMRKRSGIGGFEFMPSPPPTYYSNLKKRVGDVLNDEQIKECEELGILVDKDDQGTLLQIGTKPVGDRPTIFIEIIQRVGCMLKDDEGKEYQKGGCGGFGKGNFSELFKSIEEYEKTLEIKRTA
modifications: CaHPPDm-F372G Amino Acid Sequence
B4: GmHPPDm-F372G: Glycine max HPPD mutant F372G, SEQ ID NO: 313 (protein)
chain: MPMYTPSLSAPSSNHIQPSVTLPLYITTTKLNLKQQHHTTPMPIPMCNEIQAQAQAQAQPGFKLVGFKNFVRTNPKSDRFQVNRFHHIEFWCTDATNASRRFSWGLGMPIVAKSDLSTGNQIHASYLLRSGDLSFLFSAPYSPSLSAGSSAASSASIPSFDAATCLAFAAKHGFGVRAIALEVADAEAAFSASVAKGAEPASPPVLVDDRTGFAEVRLYGDVVLRYVSYKDAAPQAPHADPSRWFLPGFEAAASSSSFPELDYGIRRLDHAVGNVPELAPAVRYLKGFSGFHEFAEFTAEDVGTSESGLNSVVLANNSETVLLPLNEPVYGTKRKSQIETYLEHNEGAGVQHLALVTHDIFTTLREMRKRSFLGGFEFMPSPPPTYYANLHNRAADVLTVDQIKQCEELGILVDRDDQGTLLQIGTKPVGDRPTIFIEIIQRIGCMVEDEEGKVYQKGACGGFGKGNFSELFKSIEEYEKTLEAKRTA
modifications: GmHPPDm-F372G Amino Acid Sequence
B5: AtHPPDm-F372G: Arabidopsis thaliana HPPD mutant F372G, SEQ ID NO: 297 (protein)
chain: MGHQNAAVSENQNHDDGAASSPGFKLVGFSKFVRKNPKSDKFKVKRFHHIEFWCGDATNVARRFSWGLGMRFSAKSDLSTGNMVHASYLLTSGDLRFLFTAPYSPSLSAGEIKPTTTASIPSFDHGSCRSFFSSHGLGVRAVAIEVEDAESAFSISVANGAIPSSPPIVLNEAVTIAEVKLYGDVVLRYVSYKAEDTEKSEFLPGFERVEDASSFPLDYGIRRLDHAVGNVPELGPALTYVAGFTGFHQFAEFTADDVGTAESGLNSAVLASNDEMVLLPINEPVHGTKRKSQIQTYLEHNEGAGLQHLALMSEDIFRTLREMRKRSSIGGFDFMPSPPPTYYQNLKKRVGDVLSDDQIKECEELGILVDRDDQGTLLQIGTKPLGDRPTIFIEIIQRVGCMMKDEEGKAYQSGGCGGFGKGNFSELFKSIEEYEKTLEAKQLVG
modifications: AtHPPDm-F372G Amino Acid Sequence
B6: SbHPPDm-F372G: Sorghum bicolor HPPD mutant F372G, SEQ ID NO: 309 (protein)
chain: MPPTPTTAAATGAAVAAASAEQAAFRLVGHRNFVRVNPRSDRFHTLAFHHVELWCADAASAAGRFSFGLGAPLAARSDLSTGNTAHASLLLRSGALAFLFTAPYAHGADAATASLPSFSAAEARRFAADHGLAVRAVALRVADAEDAFRASVAAGARPAFEPVELGLGFRLAEVELYGDVVLRYVSYPDDADASFLPGFVGVTSPGAADYGLRRFDHIVGNVPELAPAAAYFAGFTGFHEFAEFTAEDVGTTESGLNSMVLANNAENVLLPLNEPVHGTKRRSQIQTYLDHHGGPGVQHMALASDDVLRTLREMQARSAMGGFEFMAPPAPEYYDGVRRRAGDVLTEAQIKECQELGVLVDRDDQGVLLQIGTKPVGDRPTLFLEIIQRIGCMEKDEKGQEYQKGGCGGFGKGNFSQLFKSIEDYEKSLEAKQAAAAQGS
modifications: SbHPPDm-F372G Amino Acid Sequence
B7: HvHPPDm-F372G: Hordeum vulgare HPPD mutant F372G, SEQ ID NO: 305 (protein)
chain: MPPTPTTPAATGAAAAVTPEHARPHRMVRFNPRSDRFHTLSFHHVEFWCADAASAAGRFAFALGAPLAARSDLSTGNSAHASQLLRSGSLAFLFTAPYANGCDAATASLPSFSADAARRFSADHGIAVRSVALRVADAAEAFRASRRRGARPAFAPVDLGRGFAFAEVELYGDVVLRFVSHPDGTDVPFLPGFEGVTNPDAVDYGLTRFDHVVGNVPELAPAAAYIAGFTGFHEFAEFTAEDVGTTESGLNSVVLANNSEGVLLPLNEPVHGTKRRSQIQTFLEHHGGPGVQHIAVASSDVLRTLRKMRARSAMGGFDFLPPPLPKYYEGVRRLAGDVLSEAQIKECQELGVLVDRDDQGVLLQIGTKPVGDRPTLFLEMIQRIGCMEKDERGEEYQKGGCGGFGKGNFSELFKSIEDYEKSLEAKQSAAVQGS
modifications: HvHPPDm-F372G Amino Acid Sequence

These results are taken from patent US20230212587A1, “Mutant Hydroxyphenylpyruvate Dioxygenase Polypeptide, Encoding Gene Thereof and Use Therefor” (Beijing Dabeinong Biotechnology Co., Ltd., priority 2019, published 2023).

The subject of one assay is Arabidopsis thaliana T1 plants. Nature of the assay: Topramezone tolerance of transgenic Arabidopsis thaliana T1 plants (pesticide damage grade by bleached leaf area, score, resistance evaluation). The conditions noted are these: topramezone 25 g ai/ha (1x); HPPD F372G mutants, Table 6. The class given is in vivo. Put shortly: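 Eighteen days after sowing, wild-type and HPPD-transgenic T1 Arabidopsis receive a topramezone spray at 1×, 2× or 4× field rate (25–100 g ai/ha) or water. Seven days later each plant is graded by its proportion of bleached leaf area.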
With B1, the Resistance evaluation result is recorded as “Moderately resistant”.

For the molecule B2, the Resistance evaluation entry was “Moderately resistant”.

In the case of B3, the Resistance evaluation entry is reported as “Poorly resistant”.

Consider B4, for which the Resistance evaluation entry is on record as “Poorly resistant”.

For B5, the Resistance evaluation entry was “Poorly resistant”.

As to B6, the Resistance evaluation entry is recorded as “Moderately resistant”.

Take B7: the Resistance evaluation entry was “Highly resistant”.

Staying with this assay, now noted: topramezone 100 g ai/ha (4x); HPPD F372G mutants, Table 6.
Turning to B1, the Resistance evaluation entry is reported as “Non-resistant”.

B2: the Resistance evaluation result is listed as “Poorly resistant”.

With B3, the Resistance evaluation result is given as “Non-resistant”.

For the molecule B4, the Resistance evaluation entry was “Non-resistant”.

B5: the Resistance evaluation entry is recorded as “Non-resistant”.

On to B6, for which the Resistance evaluation entry was “Non-resistant”.

On to B7, for which the Resistance evaluation entry was “Poorly resistant”.
